# Experimental data from patent US8252764B2, “Compositions and methods of use of targeting peptides against placenta and adipose tissues” (priority 2000, dated 2012).
# Bridge positions count the residues as written; N and C are the ends. Square brackets hold non-standard residues; d marks the D form. Ends that are not written are not given here. Peptide text beside a SMILES is read from it. * marks the point of attachment. Cbz = O=C(OCc1ccccc1)*; CH2F = FC*
# How the values were obtained:
# fat vasculature = format: in vivo
# Experimental: FIG. 10. Treatment of mouse obesity with fat vasculature-targeted apoptosis. Three cohorts (n=3) of (A) high-fat cafeteria diet-fed obese c57bl/6 mice; or (B) regular diet-fed old (˜1 year) c57bl/6 mice were each subcutaneously injected daily with equimolar amounts of the indicated peptides. Mouse body mass measurement was taken on days when injections were performed (injections were skipped on days for which body mass measurement is not shown). Error bars are SEM for the measurements in three mice.
# FIG. 11. Fat resorption induced by fat vasculature-targeted apoptosis. (A) Representative high-fat cafeteria diet-fed obese c57bl/6 mice; (B) and (C) representative regular diet-fed old (˜1 year) c57bl/6 mice; or (D) epididymal fat from representative regular diet-fed old c57bl/6 mice from the experiment described in FIG. 10. Whole mice (A), subcutaneous fat (B), peritoneal fat (C) and total epididymal fat (D) from the corresponding indicated treatments were photographed 1 week (A) or 3 weeks (B), (C) and (D) after the beginning of subcutaneous injections. The injected peptides were […] (SEQ ID NO:22) linked to (KLAKLAK)2 (SEQ ID NO:1) (left column), CARAC (SEQ ID NO:12) linked to (KLAKLAK)2 (SEQ ID NO:1) (middle column), and […] (SEQ ID NO:22) co-administered with (KLAKLAK)2 (SEQ ID NO:1) (right column).
# FIG. 12. Destruction of fat blood vessels as a result of targeted apoptosis. (A) Tunnel immunohistochemistry, (B) secondary antibody only negative tunnel staining control and (C) and (D) hematoxylin/eosin staining of white fat of mice. (A), (B) and (C) Mice were treated with […] (SEQ ID NO:22) linked to (KLAKLAK)2 (SEQ ID NO:1). (D) Mice were treated with CARAC (SEQ ID NO:12) linked to (KLAKLAK)2 (SEQ ID NO:1). Apoptosis (arrows, (A)) and necrosis/lymphocyte infiltration (arrows, (C)) in response to […] (SEQ ID NO:22) linked to (KLAKLAK)2 (SEQ ID NO:1) treatment are indicated. Bar: 10 μm.
# Stocks of […] (SEQ ID NO:22) fused to (KLAKLAK)2 (SEQ ID NO:1); (KLAKLAK)2 (SEQ ID NO:1) alone; CARAC (SEQ ID NO:12) fused to (KLAKLAK)2 (SEQ ID NO:1); and […] (SEQ ID NO:22) peptide were chemically synthesized, cyclized using the terminal cysteines and HPLC-purified to >90% (Anaspec). Lyophilized peptides were dissolved in DMSO to a concentration of 65 mM to make stock solutions. A total of 150 μl of 0.65 mM peptide solution in PBS was subcutaneously injected daily in the back of C57BL/6 males, after body mass was measured each day. High-fat cafeteria diet for obesity induction (TD97366: 25.4% fat, 21.79% protein, 38.41% carbohydrate) was purchased from Harlan Teklad. Mice were pre-fed with TD97366 prior to the initiation of treatment with adipose targeting peptides to induce diet-related obesity.
# HUVEC cells = assay: Apoptosis assay in HUVEC (propidium iodide, chromatin fragmentation); format: cell-based, human
# Experimental: FIG. 26. Penetratin peptide chimera binding to the β5 cytoplasmic domain induces programmed cell death. 10^6 HUVEC cells were harvested in complete media and 15 μM penetratin peptide chimeras were added to the cells. […] (a) Profile obtained with starved cells after 24 h. (b) Confluent cells in complete media. (c) 15 μM of penetratin after four hours. (d) 15 μM of VISY-penetratin chimera after four hours.
# FIG. 30. Chimeric peptide containing VISY peptide linked to penetratin (antennapedia) induces apoptosis. VISY induced apoptosis was inhibited by addition of a caspase inhibitor (zVAD).
# Approximately 1×10^6 cells were harvested in complete media and 15 AM of peptide added for 4, 8, or 12 h. The cellswere then washed in PBS and resuspended in 0.5 ml propidium iodide solution (50 μg/ml PI, 0.1% Triton X-100, 0.1% sodium citrate). After a 24-h incubation at 4° C., cells were counted with a XL Coulter (Coulter Corporation) with a 488-nm laser; 12,000 cells were counted for each histogram, and cell cycle distributions were analyzed with Multicycle program.
# Approximately 1×10^6 cells were harvested in complete medium, and 15 μM of peptide was added for 4, 8, or 12 hours. The cells were then washed in PBS and resuspended in 0.5 ml propidium iodide solution (50 μg/ml PI, 0.1% Triton X-100, 0.1% sodium citrate). After a 24-h incubation at 4° C., the cells were counted with an XL Coulter (Coulter Corporation) with a 488 nm laser; 12,000 cells were counted for each histogram, and cell cycle distributions were analyzed with the Multicycle program.
# 10^6 HUVEC were treated with 15 μM of VISY antennapedia (penetratin) chimera or 15 μM of antennapedia peptide (pentratin) alone for 2-4 hours and chromatin fragmentation was analyzed by electrophoresis in an agarose gel.
# [1] = target: T1, prohibition receptor protein complex (Mus musculus, UniProt P67778); assay: Adipose receptor protein binding and immunoprecipitation
# T1 construct: from tissue; host or cells: mouse adipose tissue extract
# T1 sequence (P67778 2-272 limits assumed): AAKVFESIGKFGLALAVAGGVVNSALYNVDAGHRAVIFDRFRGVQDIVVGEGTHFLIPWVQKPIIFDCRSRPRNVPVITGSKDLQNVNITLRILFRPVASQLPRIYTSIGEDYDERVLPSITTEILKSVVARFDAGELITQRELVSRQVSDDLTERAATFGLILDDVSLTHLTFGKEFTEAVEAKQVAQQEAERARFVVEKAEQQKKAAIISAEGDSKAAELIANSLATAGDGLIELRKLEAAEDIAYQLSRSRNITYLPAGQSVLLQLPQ
# Experimental: A band of approximately 35,000 Daltons (35 kDa) was isolated from mouse adipose tissue extract that bound to […] (SEQ ID NO:22) conjugated to (KLAKLAK)2 (SEQ ID NO:1). […] The 35 kDa band was analyzed by mass spectrometry, which identified three proteins present in the sample.
# The three proteins included predominately a B cell receptor associated protein (prohibition), apolipoprotein E, and the voltage dependent anion channel (VDAC). Further studies were performed by immunoprecipitation, using either […] (SEQ ID NO:22) or CARAC (SEQ ID NO:12) conjugated to (KLAKAK)2 (SEQ ID NO:1) and precipitating with commercially available antibodies.
# It is unknown whether those proteins bound to the CARAC (SEQ ID NO:12) moiety or to (KLAKAK)2 (SEQ ID NO:1).
# SK-RC-49/APA cells = assay: Phage binding specificity assay on SK-RC-49/APA cells; format: cell-based; settings: phage displaying the peptide insert, data not shown
# Experimental: The cell binding assay was performed with an input of 10^9 TU as described for the cell panning. The specificity was confirmed by adding […] (SEQ ID NO:56) peptide to the binding medium in increasing concentrations. For phage binding on immunocaptured APA, wells were blocked for 1 h at room temperature with PBS/3% BSA and incubated with 10^9 TU for 1 h at room temperature in 50 μl PBS/3% BSA. After eight washes in PBS/1% BSA/0.01% Tween-20 and two washes in PBS, phage were rescued by adding 200 μl of exponentially growing K91Kan E. coli. Each experiment was repeated at least three times.
# [2] = target: T2, β3 integrin cytoplasmic domain (Homo sapiens, UniProt P05106); assay: Binding of Fyn-phosphorylated phage to β3 cytoplasmic domain; settings: for Phos/Unphos: Fyn-phosphorylated versus unphosphorylated phage; for β3 or β5/BSA / β3 or β5/GST: X4YX4 library phosphorylated with Fyn
# T2 sequence (P05106 742-788 limits assumed): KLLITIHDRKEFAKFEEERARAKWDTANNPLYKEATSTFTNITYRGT
# Experimental: (§1) Phosphorylation of peptide libraries with src family protein kinases (Fyn, c-Src, Lyn, and Syc) and serine/threonine kinases such as a MAP kinase were performed as described previously (Schmitz et al., 1996; Dente et al., 1997; Gram et al., 1997). Briefly, phage particles were collected from culture supernatants by double precipitation with 20% polyethylene glycol 8000 in 2.5 M NaCl. Particles were dissolved at 10^12 particles/ml. Purified phage (10 μl) were incubated for 3 hours at room temperature with different concentrations (35 to 3,500 units) of protein kinases in a reaction buffer volume of 50 μl. The reaction mixtures were transferred to tubes containing 10 μg of agarose-conjugated anti-P-Tyr, anti-P-Ser, or anti-P-Thr monoclonal antibodies to select phage displaying phosphorylated peptides. Bound phage were eluted by washing the column with 0.3 ml of elution buffer (0.1 M NaCl/glycine/1 mg/ml BSA, pH 2.35). The eluates were neutralized with 2 M Tris-base and incubated with 2 ml of a mid-log bacteria culture. Aliquots of 20 μl were removed for plating, and phage were harvested as described. The phosphorylation-selection step was repeated. Phosphorylated peptides binding to β3 and β5 cytoplasmic domains were analyzed as described in the previous section.
# (§2) Randomly selected clones from rounds III and IV were sequenced from a X4YX4 phosphorylated library with Fyn. Amino acid sequences of the phagemid encoded peptides were deduced from nucleotide sequences. […] The ratio of binding to β3 or β5 was calculated by dividing the number of β3 or β5 colonies by GST or BSA colonies found after panning. The ratio of binding to β3 or β5 with phosphorylated phage by Fyn versus unphosphorylated phage was calculated by dividing the number of colonies found after the panning.
# (§3) The effect of phosphorylation on the affinity and specificity of the cytoplasmic domain-binding was examined. Phage displaying the β3 and β5 cytoplasmic domain-binding peptides were phosphorylated in vitro as previously described (Schmitz et al., 1996; Dente et al., 1997; Gram et al., 1997), using Fyn kinase. Specific phosphorylation of the tyrosine-containing peptide on the surface of the phage was confirmed by using ^32P-gamma […] in the kinase reaction and by separating the phage pIII protein by SDS-PAGE.
# [3] = target: T3, β5 integrin cytoplasmic domain (Homo sapiens, UniProt P18084); assay: Binding of Fyn-phosphorylated phage to β5 cytoplasmic domain; settings: for Phos/Unphos: Fyn-phosphorylated versus unphosphorylated phage; for β3 or β5/BSA / β3 or β5/GST: X4YX4 library phosphorylated with Fyn
# T3 construct: screenings involving the β5 cytoplasmic domain fusion protein
# T3 sequence (P18084 743-799 limits assumed): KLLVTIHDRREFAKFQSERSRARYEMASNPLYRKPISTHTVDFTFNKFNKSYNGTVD
# Experimental: as §1, §2, §3
compound,measurement,setting,value
CC(C)C[C@@H](NC(=O)[C@@H](CCCCN)NC(=O)CNC(=O)CNC(=O)[C@@H]1CSSC[C@H](N)C(=O)N[C@@H](CCCCN)C(=O)NCC(=O)NCC(=O)N[C@@H](CCCNC(=N)N)C(=O)N[C@@H](C)C(=O)N[C@@H](CCCCN)C(=O)N[C@@H](CC(=O)O)C(=O)N1)C(=O)N[C@H](C)C(=O)N[C@H](CCCCN)C(=O)N[C@H](CC(C)C)C(=O)N[C@H](C)C(=O)N[C@H](CCCCN)C(=O)N[C@H](CCCCN)C(=O)N[C@H](CC(C)C)C(=O)N[C@H](C)C(=O)N[C@H](CCCCN)C(=O)N[C@H](CC(C)C)C(=O)N[C@H](C)C(=O)N[C@H](CCCCN)C(=O)O (H-CKGGRAKDCGG[dK][dL][dA][dK][dL][dA][dK][dK][dL][dA][dK][dL][dA][dK]-OH; disulfide 1-9),mortality in genetically obese mice,"fat vasculature; genetically obese mice, not in normal obese mice",occasionally observed to result in mortality within a few days of injection
same,abnormalities in other organs,"fat vasculature; mouse, in vivo",No abnormalities in other organs
"COC(=O)C[C@H](NC(=O)[C@H](C)NC(=O)[C@@H](NC(=O)OCc1ccccc1)C(C)C)C(=O)CF [zVAD, reference compound] (Cbz-Val-Ala-Asp(OMe)-CH2F)",inhibition of VISY chimeric peptide induced apoptosis,HUVEC cells; added to the media at the same time as the VISY chimeric peptide,up to 70%
CARAC-(KLAKLAK)2: control CARAC (SEQ ID NO:12) fused to (KLAKLAK)2 (SEQ ID NO:1) (CARACKLAKLAKKLAKLAK) [reference compound],histopathological analysis of white fat,"fat vasculature; TUNEL, hematoxylin/eosin",no vascular apoptosis or fat necrosis
same,body mass change (in words),"fat vasculature; high-fat cafeteria diet-fed obese C57BL/6 mice, equimolar amount, sc daily",did not show a significant body mass decrease
same,binding of 35 kDa band from mouse adipose tissue extract,[1]; data not shown,much less binding
same,"binding to VDAC, prohibition and apolipoprotein E",[1]; immunoprecipitation,low levels of non-specific binding to all three proteins
CGTGCAVECEVVC,selective binding of phage to SK-RC-49/APA cells,SK-RC-49/APA cells,no selective binding
CKGGRAKDC,enrichment of prohibition receptor protein complex in precipitated fraction compared to CARAC precipitated fraction,"[1]; immunoprecipitation, SDS-PAGE, data not shown",over a ten-fold enrichment
GGGSYRHVE,Phos/Unphos,[2],13.2
same,β3 or β5/BSA,[2],5.3
same,β3 or β5/GST,[2],1.5
MLLGYRFEK,Phos/Unphos,[2],2.5
same,β3 or β5/BSA,[2],2.7
same,β3 or β5/GST,[2],3.5
TLRKYFHSS,Phos/Unphos,[3],3.8
same,β3 or β5/BSA,[3],15.2
same,β3 or β5/GST,[3],3.8
TMLRYFMFP,Phos/Unphos,[3],4.2
same,β3 or β5/BSA,[3],3.8
same,β3 or β5/GST,[3],2.3
TMLRYTVRL,Phos/Unphos,[3],14.3
same,β3 or β5/BSA,[3],2.2
same,β3 or β5/GST,[3],3.4
"VISY-penetratin chimera: VVISYSMPD (β5 cytoplasmic domain-binding peptide) coupled to penetratin, plus a biotin moiety (VVISYSMPDRQIKIWFQNRRMKWKK; also: biotin moiety, place not given here)",induction of apoptosis (chromatin fragmentation),"HUVEC cells; 10^6 HUVEC, 15 μM, 2-4 hours",induction of apoptosis
same,induction of apoptosis (propidium iodide staining),"HUVEC cells; HUVEC, 15 μM, four hours",induction of apoptosis
